Reference: IntAct's records for PubMed 24012959

B1: "Na(+)/H(+) exchange regulatory cofactor NHE-RF1" (Homo sapiens), O14745 (parent)
chain: MSADAAAGAPLPRLCCLEKGPNGYGFHLHGEKGKLGQYIRLVEPGSPAEKAGLLAGDRLVEVNGENVEKETHQQVVSRIRAALNAVRLLVVDPETDEQLQKLGVQVREELLRAQEAPGQAEPPAAAEVQGAGNENEPREADKSHPEQRELRPRLCTMKKGPSGYGFNLHSDKSKPGQFIRSVDPDSPAEASGLRAQDRIVEVNGVCMEGKQHGDVVSAIRAGGDETKLLVVDRETDEFFKKCRVIPSQEHLNGPLPVPFTNGEIQKENSREALAEAALESPRPALVRSASSDTSEELNSQDSPPKQDSTAPSSTSSSDPILDFNISLAMAKERAHQKRSSKRAPQMDWSKKNELFSNL

Variants of: B1
Conditions: with pgfrb_human PDGFRB

| effect of a mutation on the interaction | Variant |
| --- | --- |
| increasing interaction | MSADAAAGAPLPRLCCLEKGPNGYGFHLHGEKGKLGQYIRLVEPGSPAEKAGLLAGDRLVEVNGENVEKETHQQVVSRIRAALNAVRLLVVDPETDEQLQKLGVQVREELLRAQEAPGQAEPPAAAEVQGAGNENEPREADKSHPEQRELRPRLCTMKKGPSGYGFNLHSDKSKPGQFIRSVDPDSPAEASGLRAQDRIVEVNGVCMEGKQHGDVVSAIRAGGDETKLLVVDRETDEFFKKCRVIPSQEHLNGPLPVPFTNGEIQKENSREALAEAALESPRPALVRSASSDTSEELNSQVSPPKQDSTAPSSTSSSDPILDFNISLAMAKERAHQKRSSKRAPQMDWSKKNELFSNL [D301V] |
